The values that follow are results of earlier work, collected in patent US20010007853A1, “METHOD FOR ADMINISTERING MONOMERIC INSULIN ANALOGS” (priority 1998, published 2001).

For the data set the following is noted: calculated.

With glycosylated α1-antitrypsin, the “Absorption values for proteins delivered through the lungs” value is 48 h.

With parathyroid hormone (fragment 1-34), the “Absorption values for proteins delivered through the lungs” value was “fifteen”.
